Measured values from US20240254204A1.

Legend:
[1] = target: SARS-CoV-2 RBD (SARS-CoV-2); experiment: sVNT, cPass kit with SARS-CoV-2 RBD-HRP; HEK293 supernatant
[2] = target: SARS-CoV-1 RBD (SARS-CoV); experiment: sVNT, cPass kit format with SARS-CoV-1 RBD-HRP; HEK293 supernatant
[3] = target: SARS-CoV-2 RBD (SARS-CoV-2); experiment: ELISA, 100 ng coated RBD, neat supernatant, anti-human IgG-HRP
[4] = target: SARS-CoV-1 RBD (SARS-CoV); experiment: as above

| Binder | sVNT SARS-CoV-2 (% I) [1] [%] | sVNT SARS-CoV-1 (% I) [2] [%] | Binding SARS-CoV-2 [3] | Binding SARS-CoV-1 [4] |
| --- | --- | --- | --- | --- |
| Antibody 9 (SS6V9-D11) (antibody, V domains shown) VH: QVQLQESGPGLVKPSGTLSLTCAVSGGSISSNIWWSWVRQPPGKGLEWIGDIYHSGSTNYNPSLEGRVTISIDKSKNQFSLRLTSLTAADTAVYYCARAISQQYFDSSVLGYWGQGILVTVSS VL: EIVMTQSPATLSVSPGERVTLSCRASQSVVTNLAWYQQKPGQAPRLLIYGASTRATGIPARFSGSGSGTEFTLTISSLQSEDFAIYHCQQYNNWPGYTFGQGTKVDIK | 39.2 | 45.2 | 1.81 | 1.29 |
| Antibody 2 (SS6V2-G1) (antibody, V domains shown) VH: EVQLVESGGGLVQPGGSLRLSCAASGFTVSSNYMSWVRQAPGKGLEWVSVIYSGGSTFYADSVKGRFTISRDNSKNTLYLQMNSLRAEDTAVYYCARELRHYFDYWGQGTLVTVSS VL: DIQLTQSPSFLSASVGDRVTITCRASQGISSYLAWYQQKPGKAPKLLIYAASTLQSGVPSRFSGSGSGTEFTLTISSLQPEDFATYYCQQLNSYPPYSFGQGTKVEIK | 20.2 | 1.35 | 0.947 | 0.008 |
| Antibody 15 (SS6V15-F6) (antibody, V domains shown) VH: EVQLVESGGGVVQPGRSLRLSCAASGFTFSSYAIHWVRQAPGKALEWVALISYDGRTKYYADSVKGRFTISRDNSKNTLYLQMNSLRAEDTAVYYCARLDIIITPPANDYWGQGTLVTVSS VL: EIVLTQSPGTLSLSPGDRATVSCRASQIVSSNYLAWYQQKPGQVPRLLIYDASSRATGIPDRFSGSGSGTDFTLTISRLEPEDFAVYYCHQYGDSRRTFGQGTKVDIK | 15.7 | 17.5 | 0.674 | 0.831 |
| Antibody 5 (SS6V5-C3) (antibody, V domains shown) VH: EVQLVQSGAEVRKPGESLKISCKTSGYTFTHYWIGWVRQLPGKGLEWMGIIYPDDSDTKYSPSFQGQITISADKSISTAYLQWNSLKASDTAMYFCATADIVVGSNFFDHWGQGTLVTVSS VL: DIQMTQSPSTLSASVGDRVTITCRASQSISTWLAWYQQKPGKPPKVLIYKASILESGVSSRFSGSGSGTEFTLTISSLQPDDFATYYCQHYNSYIKTFGQGTKVEIK | 32.3 | 11.7 | 1.68 | 1.16 |
| Antibody 1 (SS6V1-B5) (antibody, V domains shown) VH: EVQLVESGGGLVQPGGSLRLSCAASGFILRNYEMQWVRQAPGKGLEWVSVIGNTGGTFYAGSVKGRFTISRENAKNSLYLQMNSLRAEDTALYYCARVTYTSSPLPFWFLDLWGRGTLVTVSS VL: DIQMTQSPSSLSASVGDRVTITCRASQSIGNYLNWYQQKSGKAPKILIYAASSLQSGVPSRFSGSGSGTDFTLTISSLQPEDFATYYCQQTYRTPPEDSFGQGTKVEIK | 46.3 | 52.1 | 1.73 | 1.35 |
| Antibody 7 (SS6V7-C5) (antibody, V domains shown) VH: EVQLVQSGAEVKKPGESLKISCKGSENIFSGYWIGWVRQMPGKGLEWMGIIYPDDSDTRYNPSFQGQVTISADQSISTAYLQWSRLKASDTAMYYCARHLGGGSSWPIDYWGQGTLVTVSS VL: DIQMTQSPSSLSASVGDRVTITCRANQGISNYLAWFQQKPGKAPKSLIYAASSLQSGVPSKFSGNRSGTDFTLTISSLQPEDFATYYCQQYSSYPFTFGGGTKVEIK | 14.9 | 20.8 | 1.16 | 0.972 |
| Antibody 10 (SS6V10-E1) (antibody, V domains shown) VH: EVQLVQSGAEVKKPGESLKISCQGSEDSFTGYWIGWVRQLPGKGLEWMGFIYPDDGDTRYSPAFQGLVTFSADKSITTAYLQWSSLKASDTAIYFCARHLGGGSSWPIDSWGQGTQVTVSS VL: DIQMTQSPSSLSASVGDRVTITCRASQGIRNYLAWFQQKPGKAPKSLIYAASSLQSGVPSKFSGSGYGTDFTLTINSLQPEDFATYYCQQYNNHPFTFGGGTKVEIK | 22.7 | 15.4 | 1.31 | 1.1 |
| Antibody 12 (SS6V12-E11) (antibody, V domains shown) VH: EVQLVESGGGLVKPGGSLRLSCAASGFTFSTYNMNWVRQAPGKGLEWVSSISSSSSFMFYADSVKGRFTISRDNANNSLYLQMNSLRAEDTAVYYCARDYYDNSGYYYYGMDVWGQGTTVTVSS VL: DIQMTQSPSSLSASVGDRVTITCRASQSIRTYLSWYQQKPGKAPELLIYAASNLQSGVPSRFSGSGSGTDFTLTISSLQPEDFATYYCLQTYSTPQITFGQGTRLEIE | 45 | 50.4 | 1.45 | 1.21 |
| Antibody 6 (SS6V6-C4) (antibody, V domains shown) VH: EVQLVESGGGLVQPGGSLRLSCSASGFTFNTYAMHWVRQAPGKGPEYVSGISSNGGITDYADSVKGRFTISRDNSKNTLYLQMSSLRPEDTAVYYCVKDSLATVVTLLSYWGQGTLVTVSS VL: DIQMTQSPSSLSASVGDRVTITCRASQTISSYLNWFQQKPGKAPKLLIYAASSLQSGVPSRFSGSGSGTDFTLTISSLQPEDFAIYYCQQSYSTPGTFGQGTKVEIK | 31.7 | 30.5 | 1.92 | 1.29 |
| Antibody 14 (SS6V14-F2) (antibody, V domains shown) VH: QVQLQESGPGLVKPSETLSLTCTVSGGPISSYYWTWIRQPPGKGLEWIGYIYYSGSTNYSPSLKSRVTMSLETSKNQFSLKLTSVTAADTAVYYCARDPLAEGAASSGFDNWGQGTLVTVSS VL: DIQMTQSPSSLSASVGDRVTITCRASQSISSYLNWYQQKPGKAPKLLIYAASALQSGVPSRFSGSGSGTHFSLTINGLQPEDFATYSCQQSYTTPRTFGPGTKVEIK | 33.4 | 18.1 | 1.54 | 1.06 |
| Antibody 8 (SS6V8-D3) (antibody, V domains shown) VH: EVQLVESGGDLVQPGGSLRLSCSASGFTFSTYAMHWVRQAPGKGLDYVASIASDGGITTYADSVKGRFTISRDNSKNALYLQMSSLRVEDTAVYYCVKDSLTSVTTIFDCWGQGTLVTVSS VL: DIQMTQSPSSLSASVGDSVTITCRASQNINSYLHWYQQKPGKAPKLLIYTASSLQSGVPSRFSASGSGTHFTLTISSLQPEDFATYYCQQSYTDPYTFGQGSKVEIK | 33.1 | 36.1 | 1.94 | 1.42 |
| Antibody 19 (SS6V19-F4) (antibody, V domains shown) VH: EVQLVQSGSELKKPGASVKVSCKVSGYTFTDYNMNWVRQAPGQGLEWMGWINTNTGIPTYAQGFTGRFVFSLDTSVSTAYLQISSLKAEDTAIYYCARDGGWQLPYWYFDLWGRGTLVTVSS VL: EIVMTQSPATLSVSPGERVTLSCRASYSFSSSLAWYQQKPGQAPRLLIYGTSTRATGVPVRFSGSGSGTEFTLTISSLQSEDLAVYYCQQYYSWPLTFGQGTKVDIK | 38.8 | 61.2 | 0.641 | 1.15 |
| Antibody 18 (SS6V18-E3) (antibody, V domains shown) VH: EVQLVESGGGLVQPGGSLRLSCAASGFTFSSYAMHWVRQVPGKGLEYVSSITSNGGGTFYADSVKGRFTISRDNSKNTVYLQMGSLSTEDMALYYCAREGIQGWVTYFDYWGRGILVTVSS VL: DIQMTQSPSSLSASIGDRVTITCRASQSISTNLNWYQQKPGKAPKLLIYAASSLPSGVPSRFSGSGSGTDFTLTISSLQPEDFANYLCQQTYTTPQYSFGQGTKVEIK | 15.5 | 43.7 | 1.11 | 1.33 |
